In paper PMC3875777, “Aberrantly hypermethylated Homeobox A2 derepresses metalloproteinase-9 through TBP and promotes invasion in Nasopharyngeal carcinoma”:

How the values were obtained:
[1] = molecular target: recombinant His-TBP (UniProt P20226 1-339); experiment: EMSA; supershifted by antibody; Pull-down: 100-250 pmole probe on M-280 streptavidin Dynabeads, 100-250 ug nuclear extract, 2.5 ug salmon sperm DNA, 1 h room temperature, washes with 0.5% NP-40; EMSA: LightShift kit, 20 fmol probe, 37 C 20 min, 6% gel in 1X TBE; salt and pH not given; details: protein: recombinant; tags: His; label: 5'-biotin; blunt
recombinant His-TBP, sequence (P20226 whole entry): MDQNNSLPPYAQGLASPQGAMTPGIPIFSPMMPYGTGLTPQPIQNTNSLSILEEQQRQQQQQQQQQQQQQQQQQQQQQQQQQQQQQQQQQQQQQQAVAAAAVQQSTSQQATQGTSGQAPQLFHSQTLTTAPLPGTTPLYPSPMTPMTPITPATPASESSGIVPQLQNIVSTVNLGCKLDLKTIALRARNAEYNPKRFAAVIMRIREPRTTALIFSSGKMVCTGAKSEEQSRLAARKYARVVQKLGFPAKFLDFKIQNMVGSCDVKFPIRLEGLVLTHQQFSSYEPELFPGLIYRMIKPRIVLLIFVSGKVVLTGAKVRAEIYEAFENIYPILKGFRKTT

[2] = molecular target: recombinant His-HOXA2 (UniProt O43364 1-376); experiment: as above; details: protein: recombinant; tags: His; label: 5'-biotin; blunt
recombinant His-HOXA2, sequence (O43364 whole entry): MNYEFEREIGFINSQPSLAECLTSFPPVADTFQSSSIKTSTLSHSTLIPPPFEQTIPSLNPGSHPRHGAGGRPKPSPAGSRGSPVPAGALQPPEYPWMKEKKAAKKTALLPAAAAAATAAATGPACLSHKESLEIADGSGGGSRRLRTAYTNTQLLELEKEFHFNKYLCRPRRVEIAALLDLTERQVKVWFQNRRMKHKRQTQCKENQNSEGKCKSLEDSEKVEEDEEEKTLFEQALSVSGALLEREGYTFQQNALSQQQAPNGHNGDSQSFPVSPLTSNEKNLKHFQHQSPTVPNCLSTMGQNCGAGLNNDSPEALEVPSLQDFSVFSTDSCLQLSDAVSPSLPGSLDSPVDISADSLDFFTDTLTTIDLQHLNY

B1: MMP9 TATA WT (dsDNA)
DNA 1: GAGCGCCTCCTTAAAGCCCCCACAA
DNA 2: TTGTGGGGGCTTTAAGGAGGCGCTC
[1]
  binding result: binds
[2]
  binding result: binds
